# Biological target: SidN (Lpg1083), recombinant with 6-His tag (Legionella pneumophila) (UniProt Q5ZWK2)
# Test: SEC
substance,measurement,value
"SidN (Lpg1083), recombinant with 6-His tag (from UniProt Q5ZWK2 1-227) (natural protein)",stoichiometry N,2

# — article PMC10729856
